Measurements taken from PMC13483476.

Key:
[1] = molecular target: JR-FL.v6 V3 peptide (HIV-1 clade B isolate JR-FL); test: SPR
[2] = molecular target: JR-FL.v6 V3 peptide (HIV-1 clade B isolate JR-FL); test: differential scanning fluorimetry

## 19b antigen-binding fragment (Fab)
[1]
  Kd: 1.74 nM
[2]
  increase of the transition temperature of the Fab when bound to the peptide: 6.3 °C
